From the supplement of paper PMC9170038

System: MS2 coat protein
Assay: apparent KD of MS2 coat protein; designed switch direction (-1 OFF switch, 1 ON switch): -1; higher = weaker reporter binding
Summary of the method: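 Designed RNA switches with common flanks were transcribed on Illumina chips by stalled E. coli RNA polymerase and titrated with SNAP-549-labelled MS2 coat protein, from 0.7 or 1.5 nM doubling to 3 µM, in Tris-HCl pH 7.5 buffer with KCl, MgCl2, BSA, DTT, tRNA and Tween-20. Steps lasted 0.8–1.5 h (lowest) to 10–20 min (highest). Titrations ran without input, with 200 uM small-molecule ligand, or with an oligonucleotide input. Normalised cluster fluorescence was curve-fitted, and apparent KD is the per-design median over clusters.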

[1] = Eterna round: R95, input ligand: microRNA oligo, concentration not stated
[2] = Eterna round: R95, input ligand: FMN 200 uM
[3] = Eterna round: R95, input ligand: none
[4] = input ligand: microRNA oligo, concentration not stated

Sequence	apparent KD of MS2 coat protein (input ligand: FMN 200 uM) [µM]	apparent KD of MS2 coat protein (input ligand: none) [µM]	apparent KD of MS2 coat protein [1] [µM]	apparent KD of MS2 coat protein [2] [µM]	apparent KD of MS2 coat protein [3] [µM]	apparent KD of MS2 coat protein [4] [µM]
CACUUGGUAGGAUAUGAAGGGAGGAACAUGAGGAUCACCCAUGUCCUGGAAUCCAGUCCGUCAGAAGGACCUGAGC [Eternabot (L1) Solution 44] (Eterna round: R97, puzzle: Exclusion 5)	0.0244	0.0216				
UUCCGACAUGAGGAUCACCCAUGUGAGGAUAUGUUCGAAAGCUAAGACUGCGACAGGAAUAGAAGGCGCGGGUA [Eternabot (Original) Solution 17] (Eterna round: R97, puzzle: Exclusion 1)	0.0204	0.0204				
CUUUUGUGAGGAUAUUAGUAGUAAAUAAAUAAAAUUACUAUUGAGAAGGCACAUGAGGAUCACCCAUGUUCCUC [salish99_ex4_r3_064] (puzzle: Exclusion 4)			0.0303			
GAAUACAAGUAAAGAUCCUACAUGAGGAUCACCCAUGUGCUCGUCUUGUAAAGUACUAUCACGAAAGUGAUAGUACA [Mat - Sensor v3 - turn-off var 1 - Eli Mod - D88] (puzzle: Sensor v3, turn-off variant 1)			0.159	0.0538	0.0471	
UGUUGGCGAGGAUAUACAUGAGGAUCACCCAUGUGAGAGAAAAAAGUGAGGAAGAAAAGUAGAAGGCGCUGACC [salish99_ex3_r3_042] (puzzle: Exclusion 3)			0.041	0.165	0.0551	
UAUUAGCAAGCGAGAUCCCACAUGAGGAUCACCCAUGUAACAUCCAGAAUUACUGGGUGCAAAGCUCGUCUUAUAUA [Winner reversed engineered 3] (Eterna round: R97, puzzle: Sensor, turn-off variant 1)	0.434	0.496				
AUGGGUCCUCACGGAGCUACAUGAGGAUCACCCAUGUGGAUUGAGGAUAUCGUAACCCGACGGGACGAGAAGGCAGUUUACUGU [Ex NG3 #98] (Eterna round: R96, puzzle: Exclusion NG 3)	0.0631	0.0294				0.023
CGAUGCUCGUGGCCACAUGAGGAUCACCCAUGUCGAGUUAGCGAGGAUAUCGGUAGCACAUAUCACGAGAAGGCGCGAACCUGA [Ex NG3 #29] (Eterna round: R96, puzzle: Exclusion NG 3)	0.0323	0.012				0.0109
UAUAUAUAGUAAGGAUAUGUAUUUAUCUUAUAAACAGAAGGUACUGACAUGAGGAUCACCCAUGUUUUAGUGUGGGCAUGUAGA [JMF's solution 17] (Eterna round: R96, puzzle: Exclusion NG 1)	0.0599	0.0418				0.039
GGCCGUAAUAAGGAUAUCACUAGCCUCGGCUAGUGAGAAGGUAUUACAUGAGGAUCACCCAUGUGAUCAGGCCA [E6/3-B2] (Eterna round: R97, puzzle: Exclusion 6)	0.862	0.16				
ACAUGAGGAUCACCCAUGUAAGGUUGGUUUUCUCCGGCUGUUGAGGAUAUAGUCCGGUAUCCGCGCUAGAAGGUGAGGGUUGGC [Aenatbe mod 10] (Eterna round: R96, puzzle: Exclusion NG 3)	0.073	0.0772				0.0712
UGCCAGAAAGGAUAUACAGCCCGGGCGUUCCUGCGAUAUAUACAUGAGGAUCACCCAUGUAGAAGGUUCGGCGG [EX2 C.12] (Eterna round: R97, puzzle: Exclusion 2)	0.0331	0.0285				
GGGUGUGAAGGAUAUACAUGAGGAUCACCCAUGUGAGAGGAGGAGGUUGAGGAGGUUGGUAGAAGGUCAGGAGG [JR_Exclusion3_Sub011] (Eterna round: R96, puzzle: Exclusion 3)	0.219	0.22				0.149
CAAUGUGCUGAGGAUAUCUGCAGGUUGGGCCUGGGAGAAGGCGGCACAUGAGGAUCACCCAUGUGACCGAAAUA [EX6 A.17] (Eterna round: R97, puzzle: Exclusion 6)	0.0785	0.0393				
UAAAAGCUAGGAUAUAGAGACAGAAACUUGAGGAUCACCCAAGUGAGUCAAGCUAUGUCGCUAGAAGGAGCGAAAA [Qubetizaa] (Eterna round: R97, puzzle: Exclusion 5)	0.278	0.032				
AGCUUUUUGCUCGUCUUAUACAUGAGGAUCACCCAUGUAUUGGACCACAUCGAUAGAUGUGGGCCAAGAAGCAUGGG [Omdei Mir OFFv1 C2] (Eterna round: R97, puzzle: Sensor, turn-off variant 1)	0.133	0.176				
UAUUAGCAAGCAACUGGGUACAUGAGGAUCACCCAUGUGCUCGUCUUAUAAGGUACUGUUACGAAAGUCACGGUACC [mod--Eli12] (Eterna round: R97, puzzle: Sensor, turn-off variant 1)	0.0173	0.0159				

Sequence	apparent KD of MS2 coat protein (input ligand: FMN 200 uM) [µM]	apparent KD of MS2 coat protein (input ligand: none) [µM]	apparent KD of MS2 coat protein [1] [µM]	apparent KD of MS2 coat protein [2] [µM]	apparent KD of MS2 coat protein [3] [µM]	apparent KD of MS2 coat protein [4] [µM]
CAGCUGAAUGUGAGGAUAUGUCGAGCUUCGGCUCGAUAGAAGGCACAUGAGGAUCACCCAUGUCUCAACAGCUG [BmEx4/2-C1] (Eterna round: R97, puzzle: Brourd's mod of Exclusion 4)	0.166	0.0351				
CAUGGCUACUAGGAUAUGUCGCGAUGGACGCAAACAGAAGGAGUAACAUGAGGAUCACCCAUGUUGUGACCUAA [Mabiaris] (Eterna round: R97, puzzle: Exclusion 6)	0.2	0.0289				
CCGAGCAUAUGAGGAUCAGACAUGAGGAUCACCCAUGUGCUCCGUCGAAGGAAUAAUCAUAAUGCUGGCUCGUCGUG [Eternabot (L2) Solution 6] (Eterna round: R97, puzzle: Sensor, turn-off variant 1)	0.555	0.457				
GCGAAAGCAAAACAAGUGAACAUGAGGAUCACCCAUGUCCUCAUUUGCUCGUCUUAUAAGCUAUGCGAAAGCAUAGC [Sensor 3, v1 - 9] (puzzle: Sensor v3, turn-off variant 1)			1.22	0.099	0.0967	
CCAUAUAACUGAGGAUAUCAUCGCCACUGACGUUGAGAAGGCAGACAUGAGGAUCACCCAUGUGAUUUCUCAAUAUUAUACAUC [Prohibition 79 - Jieux - Exclusion NG 1] (Eterna round: R96, puzzle: Exclusion NG 1)	0.118	0.04				0.0338
UAUUAGCAAGCGAGAUCCCACAUGAGGAUCACCCAUGUAAGCAUCCAGAAUUACUGGGUGCAAAAGCUCGUCUUAUA [Winner reversed engineered 5] (Eterna round: R97, puzzle: Sensor, turn-off variant 1)	0.0297	0.031				
ACGUGAUAUCUGUCGUUGGACAUGAGGAUCACCCAUGUAAGCUUUUUGCUCGUCUUAUAACCCGGUGACAGACCUUC [Dienlave] (puzzle: Sensor v3, turn-off variant 1)			0.236	0.0247	0.0239	
GCAGCAACUCUAAUCAAACCAACAUGAGGAUCACCCAUGUCUCAGGAUAUGGUCUGGAUUACAGGCCAGAAGGGAGAAAGCUGC [Eli exng3 - 047] (Eterna round: R96, puzzle: Exclusion NG 3)	0.0116	0.0149				0.0114
UAGACUGAAGGAUAUACGUGGUAUCCGGCUAAUCAAGGUUCACAUGAGGAUCACCCAUGUAGAAGGUCAGCUCG [Eternabot (L2) Solution 18] (Eterna round: R97, puzzle: Exclusion 2)	0.359	0.0584				
CUGUACUGAGGAUAUACAUGAGGAUCACCCAUGUUCCAAGGCUAGGAAACUAGCAAAAGUAGAAGGCAGUACAG [Mat - Exclusion 3 - Eli Mod - D55] (Eterna round: R97, puzzle: Exclusion 3)	0.556	0.0327				
GUGGUCCGAGGAUAUAUUAUGUGAUACAUGAGGAUCACCCAUGUUAUAUAAUGGAUGUUAGUAGAAGGCGGACUAC [Mat - Exclusion 5 - JL mod - D83] (puzzle: Exclusion 5)			0.056	0.107	0.0491	
GGAAGGCGAGGAUAUGCAAUAAAGCAGGCGAAGGCCUGCAAACAUGAGGAUCACCCAUGUAGAAGGCGCGAGAA [AK-MS2ROC-r4-exclusion2-6.6] (Eterna round: R97, puzzle: Exclusion 2)	0.0172	0.0261				
AUACGUGAGAAGGAUAUCACACGCCAGAGGCGUUGAGAAGGUUUCACAUGAGGAUCACCCAUGUGCUCUUCCAG [Orlaa] (Eterna round: R97, puzzle: Exclusion 6)	0.0613	0.0235				
UGCGGGCUUCUGAGACCUCACAUGAGGAUCACCCAUGUGCUUGUCUUGUAAGUGGGUAGGUCGUUGGCUGACUCACA (Eterna round: R97, puzzle: Sensor, turn-off variant 1)	0.0182	0.0178				
UGGGUACAUGAGGAUCACCCAUGUGAGGAUAUGCCGGAAGAAUCGCAGAAAUGAGCCAGUAGAAGGCACAAGGG [Eternabot (L2) Solution 100] (Eterna round: R97, puzzle: Exclusion 1)	1.3	1.19				
CACAAGCUUUUUUGAUGCAUUUUAGUGGGUGUGGGUUGGACAUGAGGAUCACCCAUGUUUAUGAAGCUCGAUCUUUU [JR_SV3TOV2_Sub081] (puzzle: Sensor v3, turn-off variant 2)			0.17	0.0927	0.124	
